Target: biotinylated, tyrosine-phosphorylated CLEC-2 alanine substitution mutant peptide (2–5 Ala)
Assay: SPR

| Substance | fold decrease in affinity against the wild type peptide [fold] |
| --- | --- |
| GST-tagged recombinant Syk C-terminal SH2 domain (domain or fragment) | 4 |
| GST-tagged recombinant Syk tandem SH2 domains (both SH2 domains with the linker region) (domain or fragment) | 3 |

— paper PMC3576117
